Results reported in the DeepSol protein solubility set.

test: soluble on expression in E. coli; label from the status in PepcDB or PDB records

Row | Sequence | soluble on expression in E. coli
1 | MSLSFFFQSATVSDGELTGADLKDCISNNSLSSNASLPSVQSCRRLRERRVASWAVSFERLLQDPVGVRYFSDFLRKEFSEENILFWQACECFSHVPAHDKKELSYRAREIFSKFLCSKATTPVNIDSQAQLADDILNAPHPDMFKEQQLQIFNLMKFDSYTRFLKSQLYQECVLAEVEGRTLPDSQQVPSSPASKHSISSDHSNVSTPKKLSGKSKSGRSLNEDVGEEDSEKKRRGAFFSWSRSRSTGRSQKKKDHGDHAHDAPHANGGLCRRESQGSVSSAGSLDLSEACRTSALEKDKAAKHCCVHLPDGTSCVVAVKSGFSIKEILSGLCERHGINGAAVDLFLVGGDKPLVLHQDSSILATRDLRLEKRTLFRLDLVPINRSVGLKAKPTKPVTEVLRPVVAKYGLDLGSLLVRLSGEKEPLDLGAPISSLDGQRVILEERDPSRGKVSTDKQKGAPVKQNSAVNSSPRNHLAMGEERTLGKSNSIKIRGENGKSARDPRLSKREESIAKIGKKEYQKINLDEAEEFFELISKAQSNRADDQRGLLRKEDLVLPEFLRLPAGSSELALSSPPPVKGYSKRAVTGHGQEGAAQTEESYSDSPATSPASAQSPCSAYSPGSAHSPGSAHSTPGPPGTTQPGEKPTKPSCVSMVQEGTTQAWRRLSPGMEAGGIQTVEDEQVADLTLMGEGDISSPNSTLLPPPPTPQDTPGPPRPGTSRF | soluble
2 | MGSDKIHHHHHHMHVGIFADGGYEKGMGHVVRMKRLAEGLKQRCLITFYTNQDSEAFLHEEHWQVIVKPELQQHEFILREIKSKKLDLLLFDILGAPAELLKKIKTETDAKIVLFEEKNGKSIQYSDAVINGIYGDIRSRVYVQGNTRIYEGPDYLILHPAFQAAREDYTLKKDCRNILVALGGSDPKQLIFKVLAAADQVPDIKDKNMMFVMGSASPHQEAVRRRIEKKPQYKMIEQTNDMAGLMKQADAAIVAGGISLYEAICIGVPCLVLSQVEHQTATAKTFADQGAALDLGLGELVPDETLIYQMSRIMSSYPLRLSLHKGGRPLVDGKGIIRVTAILQDLYEQEI | not soluble
3 | QSRGEKRTAHNAIEKRYRSSINDKIIELKDLVVGTEAKLNKSAVLRKAIDYIRFLQHSNQKLKQENLSLRTAVHKSKSLKDL | soluble
4 | MVVPLKRIDKIRWEIPKFDKRMRVPGRVYADEVLLEKMKNDRTLEQATNVAMLPGIYKYSIVMPDGHQGYGFPIGGVAAFDVKEGVISPGGIGYDINCGVRLIRTNLTEKEVRPRIKQLVDTLFKNVPSGVGSQGRIKLHWTQIDDVLVDGAKWAVDNGYGWERDLERLEEGGRMEGADPEAVSQRAKQRGAPQLGSLGSGNHFLEVQVVDKIFDPEVAKAYGLFEGQVVVMVHTGSRGLGHQVASDYLRIMERAIRKYRIPWPDRELVSVPFQSEEGQRYFSAMKAAANFAWANRQMITHWVRESFQEVFKQDPEGDLGMDIVYDVAHNIGKVEEHEVDGKRVKVIVHRKGATRAFPPGHEAVPRLYRDVGQPVLIPGSMGTASYILAGTEGAMKETFGSTCHGAGRVLSRKAATRQYRGDRIRQELLNRGIYVRAASMRVVAEEAPGAYKNVDNVVKVVSEAGIAKLVARMRPIGVAKG | soluble
5 | MGSDKIHHHHHHMRILVTNDDGIQSKGIIVLAELLSEEHEVFVVAPDKERSATGHSITIHVPLWMKKVFISERVVAYSTTGTPADCVKLAYNVVMDKRVDLIVSGVNRGPNMGMDILHSGTVSGAMEGAMMNIPSIAISSANYESPDFEGAARFLIDFLKEFDFSLLDPFTMLNINVPAGEIKGWRFTRQSRRRWNDYFEERVSPFGEKYYWMMGEVIEDDDRDDVDYKAVREGYVSITPIHPFLTNEQCLKKLREVYD | not soluble
6 | MGSDKIHHHHHHMPRITQEISYNCDYGDNTFNLAIDIGGTLAKVVFSPIHSNRLMFYTIETEKIDKFMELLHSIIKEHNNGCYRMTHIIATGGGAFKFYDLLYENFPQIKGISRFEEMEGLIHGLDFFIHEIPDEVFTYNDQDGERIIPTSSGTMDSKAIYPYLLVNIGSGVSILKVTEPNNFSRVGGSSLGGGTLWGLLSLITGAQTYDQMLDWAQEGDNSSVDMLVGDIYGTDYNKIGLKSSAIASSFGKVFQNRMTSNKSLENNENKLYSSHESIEKNNGQMFKNPDICKSLLFAISNNIGQIAYLQAKINNIQNIYFGGSYTRGHLTTMNTLSYAINFWSQGSKQAFFLKHEGYLGAMGAFLSASRHSSTKKTST | not soluble
7 | MSITAQLAALAGHGIELAKEIFAHGTSLKSKEDLAAVLGFDPTRVGRYQKTAKALFGPTDQPQLRAQAIAIAQKNNFSIDVLALINCKVGRLADAPLREEFRLELHRFAVDNSYTAIKQFANDQLEKRNGPNPARQHSLRYARFSHHPDANGMRYLITSLPDETMTAIEAKLVDKAKAHKSDTISM | not soluble
8 | MGSDKIHHHHHHMDLSKIASTINMRYYSQLGGFQVGGAVSGLDTQSIINAILEAESQPLQNLTEKYEKYELMQEAYTEVKTKLREFRDLVYSFKLQSTVVQKTAVSSSSLLSAEASSVAVTGVYHVKIVQTATYTTLAGASEVVPPPDSTKTFGELDYMYTPQEGTVRLYNNETGNYVEVQVLSTDTIDDIVSKLNSALSSAGITGSVSYDTSTGKISITSDKNFSLVDITGNFTKVFHLDEASLNYSGGNYSFTSTASVSGLSTAKTLQQIATYTSKTIISGKVKINGVEIDVDQNDTLSSLIEKINDSEAGVTASYDYHANRVVIISKTSGPEAITLEDTYGTGLFSLLGIENHSLYVGQKAHLQISMDGTNWADVYSDTNDVEYNGVTFHISGMTSETITVDVRVDTDAIVEKIKEFVDKWNETMDYLNEKLTEESITDKDEEEMTEEEKMKGVLKGDDLLEEIFSRLRGFITYKAEGDINYLWELGISTGDIGTGYENMMKGHLEVDEEKLKQIVEEDPNKVWEFFGGENGFATQLDDYLWELVKFNGRIDQVAGISGRIEREQRFLATQIASWIERLSKREQELWRKFSVMEEVISQLQSQGSWISQALQGSSNK | not soluble
9 | ATGGGTAATAATTTAATGCAGACGGACCTTTCCGTCTGGGGTATGTATCARCACGCCGATATTGTCGTTAAGTGCGTGATGATTGGGCTTATTTTGGCCTCCGTAGTCACCTGGGCAATCTTCTTCAGTAAGAGCGTAGAGTTCTTTAATCAGAAGCGTCGCCTTAAGCGCGAGCAGCAACTGCTGGCTGAAGCGCGTTCCTTAAACCAGGCCAACGATATCGCCGCTGATTTTGGTAGCAAAAGCTTAAGCCTGCATTTGCTCAATGAAGCGCAGAATGAGCTGGAACTGTCAGAAGGCAGCGACGATAACGAAGGTATTAAAGAACGTACCAGCTTCCGTCTGGAGCGTCGGGTCGCCGCAGTAGGTCGTCAAATGGGCCGCGGTAACGGCTATCTGGCAACCATCGGCGCGATTTCGCCGTTCGTTGGGCTGTTTGGTACGGTCTGGGGCATCATGAACAGCTTTATTGGTATCGCGCAAACGCAGACCACTAACCTGGCAGTCGTTGCGCCGGGTATCGCAGAAGCTCTGTTAGCAACGGCAATCGGTCTGGTGGCAGCGATTCCGGCGGTCGTTATCTATAACGTATTCGCGCGTCAGATTGGCGGCTTTAAAGCGATGCTGGGTGATGTCGCAGCGCAGGTATTGTTGCTGCAAAGCCGTGACCTGGATCTGGAAGCCAGCGCCGCTGCGCATCCGGTTCGTGTCGCACAAAAATTACGCGCAGGATAA | not soluble
10 | MGGVMSYFRGLFGAREMRILILGLDGAGKTTILYRLQVGEVVTTIPTIGFNVEQVEYKNLKFQVWDLGGQTSIRPYWRCYYANTDAIIYVVDSADRDRVGISRQELATMLQEDELQGAVLAVLANKQDIAGCLTETEVYKALGLDALRNRTIQIFKTSASKGEGLDPAMDWLANQLQQKK | not soluble
11 | MAHHHHHHMATASPSLSSNCFIDAATYFESRRGRRTFPERNASQILLGDASANSPIEEEEGLVRRQAQASAPVAWQQQQQQRHQQMRPTRRPRGPGIAFAARIEASGFPAAASRRSACADVVPECLYQYDTSELRTHKRPAQMPNRVKQCDRNLQLFLRPEEQVVRSAAAAVMLGESRDGQLSYSRYPSSQAHEHSKDPRMTADAIEASSSPFSDSAPHDQAMMTDRRSCLPYAPAAELDDSLLLKESLSSDRLRLLEHLYQRERSRLRGASRSVERDVGAVAEEDARAWHGQAPVSSLPWGTTVLPFRHGDSADVAANLPSLRRRAERSSVRRDDGDGAVHAHPLQGRDWQPWERKYACEAHPVTPRTRSSFHASSQIADSNERSDNDNDRNGGVDYTHAKSFGNATCSANWRCASASHRRRVTGSYDDFSDSTEARNEPPKHTTRIGSRMAMADAAPRVPHISAWFAPLRNDRVARQAHHTRSADHARASHSLRGEKERQAGQLQRHISAASPSVQGSSSSTAAGARPVETSPAASARTQATVTLSDVCTHQPLRAPSLQQRQHGKLAGSAASSPLFPTSSARVQGRDDAALTLRDVCGALNTAAVVM | not soluble
